T1: NFAST (fragment 1–114 of FAST)
T1 construct: N-terminal fragment (residues 1-114) of the engineered fluorogenic reporter FAST, split between Ser 114 and Gly 115; numbers count on: FAST; Cloned in pET28a with NheI and XhoI; Surmise: the His tag is the N-terminal one of the vector; no cleavage is told; also called recombinantly purified NFAST; source: E. coli Rosetta (DE3) pLysS, purified (Ni-NTA, PD-10 desalting)
T1 chain: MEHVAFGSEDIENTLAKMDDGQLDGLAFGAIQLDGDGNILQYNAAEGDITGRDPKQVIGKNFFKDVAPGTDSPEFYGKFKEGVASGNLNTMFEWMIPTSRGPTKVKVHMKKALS

T2: CFAST11 (fragment 115-125 of FAST)
T2 construct: C-terminal fragment 115-125 of the engineered protein FAST; source: synthetic peptide, bought: Clinisciences, 98% purity
T2 peptide: Ac-GDSYWVFVKRV-NH2

T3: CFAST10
T3 construct: CFAST11 without its last C-terminal residue; source: synthetic peptide, bought: Clinisciences, 98% purity
T3 peptide: Ac-GDSYWVFVKR-NH2

T4: CFAST9
T4 construct: CFAST11 without its last two C-terminal residues; source: synthetic peptide, bought: Clinisciences, 98% purity
T4 peptide: Ac-GDSYWVFVK-NH2

T5: CFAST8
T5 construct: CFAST11 without its last three C-terminal residues; source: synthetic peptide, bought: Clinisciences, 98% purity
T5 peptide: Ac-GDSYWVFV-NH2


What was measured:
Conditions in all cases: both partners purified
[1] = target: T1, NFAST (fragment 1–114 of FAST); assay: other fluorescence titration; synthetic CFASTn peptides (n = 8–11) and recombinant purified NFAST in the presence of fluorogen (10 µM HMBR; also HBR-3,5DOM); Spark 10M plate reader; one-site-specific binding fit; apparent
[2] = target: T2, CFAST11 (fragment 115-125 of FAST); assay: other fluorescence titration; NFAST titrated onto 100 nM CFASTn in the presence of 10 µM HMBR; pH 7.4 phosphate buffered saline, 25 °C; excitation 480 nm, emission 540 nm; plate reader; one-site-specific binding fit; apparent
[3] = target: T3, CFAST10; assay: as above
[4] = target: T4, CFAST9; assay: as above
[5] = target: T5, CFAST8; assay: as above
[6] = target: T2, CFAST11 (fragment 115-125 of FAST); assay: other fluorescence titration; NFAST titrated onto 100 nM CFASTn in the presence of 10 µM HBR-3,5DOM; pH 7.4 phosphate buffered saline, 25 °C; excitation 520 nm, emission 600 nm; plate reader; one-site-specific binding fit; apparent
[7] = target: T3, CFAST10; assay: as above
[8] = target: T4, CFAST9; assay: as above

| binding result [1] | Kd [2] | Kd [3] | Kd [4] | Kd [5] | Kd [6] | Kd [7] | Kd [8] | Binder |
| --- | --- | --- | --- | --- | --- | --- | --- | --- |
| binds | – | – | – | – | – | – | – | Ac-GDSYWVFVKR-NH2 (CFAST11 without its last C-terminal residue; numbers count on: FAST; source: synthetic peptide, bought: Clinisciences (98% purity)) [CFAST10, synthetic peptide] |
| binds | – | – | – | – | – | – | – | Ac-GDSYWVFVKRV-NH2 (C-terminal fragment (residues 115-125) of the engineered reporter FAST; numbers count on: FAST; source: synthetic peptide, bought: Clinisciences (98% purity)) [CFAST11 (fragment 115–125 of FAST), synthetic peptide] |
| – | 0.21 ± 0.05 µM | 0.95 ± 0.08 µM | 5.7 ± 0.6 µM | 21 ± 4 µM | 1.4 ± 0.2 µM | 6.2 ± 0.5 µM | 25 ± 1 µM | NFAST (fragment 1-114 of FAST, Fluorescence-Activating and absorption-Shifting Tag) (domain or fragment, Cloned into pET28a by NheI and XhoI; also called Histag-NFAST; pAG209; source: E. coli Rosetta (DE3) pLysS, purified (Ni-NTA, PD-10 desalting into PBS)) MEHVAFGSEDIENTLAKMDDGQLDGLAFGAIQLDGDGNILQYNAAEGDITGRDPKQVIGKNFFKDVAPGTDSPEFYGKFKEGVASGNLNTMFEWMIPTSRGPTKVKVHMKKALS |
